Laboratory results taken from article PMC6188088.

Experiments:
[1] = tested on: T1, TnpA IS1535 (WT) (Mycobacterium tuberculosis), ORF:81838cbf; assay: EMSA
T1 sequence: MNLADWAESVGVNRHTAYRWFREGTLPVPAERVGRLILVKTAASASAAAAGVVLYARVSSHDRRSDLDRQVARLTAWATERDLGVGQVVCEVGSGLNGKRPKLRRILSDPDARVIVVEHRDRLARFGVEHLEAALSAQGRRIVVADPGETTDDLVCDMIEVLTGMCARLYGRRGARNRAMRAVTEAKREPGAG

[2] = tested on: TnpA IS1535 (WT) (Mycobacterium tuberculosis); assay: EMSA
[3] = biological target: TnpA^IS1535, full length, wild type (Mycobacterium tuberculosis); assay: native gel or EMSA; TnpA (32 nM) and TnpA-MBP (8 to 256 nM), alone or mixed, incubated with the IS1535 LEΔ54 DNA probe, which gives only complex I; oligomer bound to DNA judged from the absence of a band of intermediate mobility
[4] = biological target: TnpA^ISC1926 C-terminal domain (CTD), residues 65-221 (Sulfolobus islandicus); assay: crystal structure; TnpA^ISC1926 CTD (65-221), hanging drop, 20 mM MOPS pH 7.0, 100 mM Na-acetate, 0.1 mM DTT mixed with 8% tacsimate pH 4.0, 20% PEG3350, 25°C; 2.9 Å; two dimers in the asymmetric unit

Substance: AAAAAGAATTCCGACTCCGCCCAATCCGCCAGATTCACGCCGCCAATTAGAACACACTAACGCACACTAAAACACACTCAACACGCAACAGCTCTGAACCCCAGAGCGTTGGCCGACAAGCGCCCACCACACACGGACGTCTTTTT (double strand) [IS1535 LE 149 bp]
- K half [1]: < 10 nM

Substance: IS1535 LE 149 bp
- K half [2]: < 10 nM

Substance: IS1535 RE 139 bp
- binding signal ([2]; scale: % of probe as PEC): 3

Substance: TnpA^IS1535, full length, wild type (enzyme)
- stoichiometry N [3]: 2

Substance: TnpA^ISC1926 C-terminal domain (CTD), residues 65-221 (domain or fragment)
- stoichiometry N [4]: 2
